According to US20140087995A1 (published 2014):
Numbered stars: 1 amine (or outer) side, 2 acyl side, 3 side chain; on linkers, the order of the positions; unused ones are H or OH. Bridge positions count the residues as written; N and C are the ends. Side chains are listed from the residue outwards. Ends that are not written are not given here. * marks the point of attachment. C20 diacid = O=C(O)CCCCCCCCCCCCCCCCCCC(=O)*; γGlu = O=C(O)[C@H](CCC(=O)[*:2])N[*:1]; AEEA = NCCOCCOCC(=O)O

T1: human amylin 3(a) receptor (human calcitonin receptor co-expressed with RAMP-3) (human, UniProt P30988 25-474; O60896 24-148, limits assumed)
T1 sequence (looked up) 1: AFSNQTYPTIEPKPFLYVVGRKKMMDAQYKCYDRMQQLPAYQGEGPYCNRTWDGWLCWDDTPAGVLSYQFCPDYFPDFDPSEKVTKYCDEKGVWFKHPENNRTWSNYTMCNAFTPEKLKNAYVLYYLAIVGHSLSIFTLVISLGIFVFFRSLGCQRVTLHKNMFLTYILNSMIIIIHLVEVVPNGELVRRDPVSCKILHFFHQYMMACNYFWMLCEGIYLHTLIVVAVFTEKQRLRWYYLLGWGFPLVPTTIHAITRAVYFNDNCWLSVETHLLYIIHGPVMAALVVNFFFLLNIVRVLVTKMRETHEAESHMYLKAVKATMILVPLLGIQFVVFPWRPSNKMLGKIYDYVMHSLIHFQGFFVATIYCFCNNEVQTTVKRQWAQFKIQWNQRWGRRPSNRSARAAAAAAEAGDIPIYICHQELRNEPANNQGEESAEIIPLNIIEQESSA
T1 sequence (looked up) 2: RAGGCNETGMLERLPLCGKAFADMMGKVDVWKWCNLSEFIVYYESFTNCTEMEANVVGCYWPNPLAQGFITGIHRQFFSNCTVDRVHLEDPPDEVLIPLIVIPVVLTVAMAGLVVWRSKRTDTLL

B1: N^ε1-[2-[2-[2-[[(4S)-4-carboxy-4-(19-carboxynonadecanoylamino)butanoyl]amino]ethoxy]ethoxy]acetyl]-[Arg17,Pro21,Pro27]-h-amylin (peptide)
peptide: K([AEEA-γGlu-C20 diacid])CNTATCATQRLANFLRHSSPNFGAIPSSTNVGSNTY-NH2
modifications: disulfide 2-7; N-terminus assumed
SMILES: CC[C@H](C)[C@H](NC(=O)[C@H](C)NC(=O)CNC(=O)[C@H](Cc1ccccc1)NC(=O)[C@H](CC(N)=O)NC(=O)[C@@H]1CCCN1C(=O)[C@H](CO)NC(=O)[C@H](CO)NC(=O)[C@H](Cc1c[nH]cn1)NC(=O)[C@H](CCCNC(=N)N)NC(=O)[C@H](CC(C)C)NC(=O)[C@H](Cc1ccccc1)NC(=O)[C@H](CC(N)=O)NC(=O)[C@H](C)NC(=O)[C@H](CC(C)C)NC(=O)[C@H](CCCNC(=N)N)NC(=O)[C@H](CCC(N)=O)NC(=O)[C@@H](NC(=O)[C@H](C)NC(=O)[C@@H]1CSSC[C@H](NC(=O)[C@@H](N)CCCCNC(=O)COCCOCCNC(=O)CC[C@H](NC(=O)CCCCCCCCCCCCCCCCCCC(=O)O)C(=O)O)C(=O)N[C@@H](CC(N)=O)C(=O)N[C@@H]([C@@H](C)O)C(=O)N[C@@H](C)C(=O)N[C@@H]([C@@H](C)O)C(=O)N1)[C@@H](C)O)C(=O)N1CCC[C@H]1C(=O)N[C@@H](CO)C(=O)N[C@@H](CO)C(=O)N[C@H](C(=O)N[C@@H](CC(N)=O)C(=O)N[C@H](C(=O)NCC(=O)N[C@@H](CO)C(=O)N[C@@H](CC(N)=O)C(=O)N[C@H](C(=O)N[C@@H](Cc1ccc(O)cc1)C(N)=O)[C@@H](C)O)C(C)C)[C@@H](C)O
notes: also called compound 41
B2: N^ε1-[(4S)-4-carboxy-4-(19-carboxynonadecanoylamino)butanoyl]-[His14,Arg17,Pro21,Pro27]-h-amylin (peptide)
peptide: K([γGlu-C20 diacid])CNTATCATQRLAHFLRHSSPNFGAIPSSTNVGSNTY-NH2
modifications: disulfide 2-7; N-terminus assumed
SMILES: CC[C@H](C)[C@H](NC(=O)[C@H](C)NC(=O)CNC(=O)[C@H](Cc1ccccc1)NC(=O)[C@H](CC(N)=O)NC(=O)[C@@H]1CCCN1C(=O)[C@H](CO)NC(=O)[C@H](CO)NC(=O)[C@H](Cc1c[nH]cn1)NC(=O)[C@H](CCCNC(=N)N)NC(=O)[C@H](CC(C)C)NC(=O)[C@H](Cc1ccccc1)NC(=O)[C@H](Cc1c[nH]cn1)NC(=O)[C@H](C)NC(=O)[C@H](CC(C)C)NC(=O)[C@H](CCCNC(=N)N)NC(=O)[C@H](CCC(N)=O)NC(=O)[C@@H](NC(=O)[C@H](C)NC(=O)[C@@H]1CSSC[C@H](NC(=O)[C@@H](N)CCCCNC(=O)CC[C@H](NC(=O)CCCCCCCCCCCCCCCCCCC(=O)O)C(=O)O)C(=O)N[C@@H](CC(N)=O)C(=O)N[C@@H]([C@@H](C)O)C(=O)N[C@@H](C)C(=O)N[C@@H]([C@@H](C)O)C(=O)N1)[C@@H](C)O)C(=O)N1CCC[C@H]1C(=O)N[C@@H](CO)C(=O)N[C@@H](CO)C(=O)N[C@H](C(=O)N[C@@H](CC(N)=O)C(=O)N[C@H](C(=O)NCC(=O)N[C@@H](CO)C(=O)N[C@@H](CC(N)=O)C(=O)N[C@H](C(=O)N[C@@H](Cc1ccc(O)cc1)C(N)=O)[C@@H](C)O)C(C)C)[C@@H](C)O
notes: also called compound 70
B3: N^ε1-[(4S)-4-carboxy-4-[[(4S)-4-carboxy-4-(19-carboxynonadecanoylamino)butanoyl]amino]butanoyl]-[Arg17,Pro21,Pro27,His34]-h-amylin (peptide)
peptide: K([γGlu-γGlu-C20 diacid])CNTATCATQRLANFLRHSSPNFGAIPSSTNVGHNTY-NH2
modifications: disulfide 2-7; N-terminus assumed
SMILES: CC[C@H](C)[C@H](NC(=O)[C@H](C)NC(=O)CNC(=O)[C@H](Cc1ccccc1)NC(=O)[C@H](CC(N)=O)NC(=O)[C@@H]1CCCN1C(=O)[C@H](CO)NC(=O)[C@H](CO)NC(=O)[C@H](Cc1c[nH]cn1)NC(=O)[C@H](CCCNC(=N)N)NC(=O)[C@H](CC(C)C)NC(=O)[C@H](Cc1ccccc1)NC(=O)[C@H](CC(N)=O)NC(=O)[C@H](C)NC(=O)[C@H](CC(C)C)NC(=O)[C@H](CCCNC(=N)N)NC(=O)[C@H](CCC(N)=O)NC(=O)[C@@H](NC(=O)[C@H](C)NC(=O)[C@@H]1CSSC[C@H](NC(=O)[C@@H](N)CCCCNC(=O)CC[C@H](NC(=O)CC[C@H](NC(=O)CCCCCCCCCCCCCCCCCCC(=O)O)C(=O)O)C(=O)O)C(=O)N[C@@H](CC(N)=O)C(=O)N[C@@H]([C@@H](C)O)C(=O)N[C@@H](C)C(=O)N[C@@H]([C@@H](C)O)C(=O)N1)[C@@H](C)O)C(=O)N1CCC[C@H]1C(=O)N[C@@H](CO)C(=O)N[C@@H](CO)C(=O)N[C@H](C(=O)N[C@@H](CC(N)=O)C(=O)N[C@H](C(=O)NCC(=O)N[C@@H](Cc1c[nH]cn1)C(=O)N[C@@H](CC(N)=O)C(=O)N[C@H](C(=O)N[C@@H](Cc1ccc(O)cc1)C(N)=O)[C@@H](C)O)C(C)C)[C@@H](C)O
notes: also called compound 86
B4: N^ε1-[(4S)-4-carboxy-4-[[(4S)-4-carboxy-4-(19-carboxynonadecanoylamino)butanoyl]amino]butanoyl]-[Glu14,Arg17,Pro21,Pro27,Arg35]-h-amylin (peptide)
peptide: K([γGlu-γGlu-C20 diacid])CNTATCATQRLAEFLRHSSPNFGAIPSSTNVGSRTY-NH2
modifications: disulfide 2-7; N-terminus assumed
SMILES: CC[C@H](C)[C@H](NC(=O)[C@H](C)NC(=O)CNC(=O)[C@H](Cc1ccccc1)NC(=O)[C@H](CC(N)=O)NC(=O)[C@@H]1CCCN1C(=O)[C@H](CO)NC(=O)[C@H](CO)NC(=O)[C@H](Cc1c[nH]cn1)NC(=O)[C@H](CCCNC(=N)N)NC(=O)[C@H](CC(C)C)NC(=O)[C@H](Cc1ccccc1)NC(=O)[C@H](CCC(=O)O)NC(=O)[C@H](C)NC(=O)[C@H](CC(C)C)NC(=O)[C@H](CCCNC(=N)N)NC(=O)[C@H](CCC(N)=O)NC(=O)[C@@H](NC(=O)[C@H](C)NC(=O)[C@@H]1CSSC[C@H](NC(=O)[C@@H](N)CCCCNC(=O)CC[C@H](NC(=O)CC[C@H](NC(=O)CCCCCCCCCCCCCCCCCCC(=O)O)C(=O)O)C(=O)O)C(=O)N[C@@H](CC(N)=O)C(=O)N[C@@H]([C@@H](C)O)C(=O)N[C@@H](C)C(=O)N[C@@H]([C@@H](C)O)C(=O)N1)[C@@H](C)O)C(=O)N1CCC[C@H]1C(=O)N[C@@H](CO)C(=O)N[C@@H](CO)C(=O)N[C@H](C(=O)N[C@@H](CC(N)=O)C(=O)N[C@H](C(=O)NCC(=O)N[C@@H](CO)C(=O)N[C@@H](CCCNC(=N)N)C(=O)N[C@H](C(=O)N[C@@H](Cc1ccc(O)cc1)C(N)=O)[C@@H](C)O)C(C)C)[C@@H](C)O
notes: also called compound 89
B5: N^ε1-[(4S)-4-carboxy-4-[[(4S)-4-carboxy-4-(19-carboxynonadecanoylamino)butanoyl]amino]butanoyl]-[Asp14,Arg17,Pro21,Pro27,Asp35]-h-amylin (peptide)
peptide: K([γGlu-γGlu-C20 diacid])CNTATCATQRLADFLRHSSPNFGAIPSSTNVGSDTY-NH2
modifications: disulfide 2-7; N-terminus assumed
SMILES: CC[C@H](C)[C@H](NC(=O)[C@H](C)NC(=O)CNC(=O)[C@H](Cc1ccccc1)NC(=O)[C@H](CC(N)=O)NC(=O)[C@@H]1CCCN1C(=O)[C@H](CO)NC(=O)[C@H](CO)NC(=O)[C@H](Cc1c[nH]cn1)NC(=O)[C@H](CCCNC(=N)N)NC(=O)[C@H](CC(C)C)NC(=O)[C@H](Cc1ccccc1)NC(=O)[C@H](CC(=O)O)NC(=O)[C@H](C)NC(=O)[C@H](CC(C)C)NC(=O)[C@H](CCCNC(=N)N)NC(=O)[C@H](CCC(N)=O)NC(=O)[C@@H](NC(=O)[C@H](C)NC(=O)[C@@H]1CSSC[C@H](NC(=O)[C@@H](N)CCCCNC(=O)CC[C@H](NC(=O)CC[C@H](NC(=O)CCCCCCCCCCCCCCCCCCC(=O)O)C(=O)O)C(=O)O)C(=O)N[C@@H](CC(N)=O)C(=O)N[C@@H]([C@@H](C)O)C(=O)N[C@@H](C)C(=O)N[C@@H]([C@@H](C)O)C(=O)N1)[C@@H](C)O)C(=O)N1CCC[C@H]1C(=O)N[C@@H](CO)C(=O)N[C@@H](CO)C(=O)N[C@H](C(=O)N[C@@H](CC(N)=O)C(=O)N[C@H](C(=O)NCC(=O)N[C@@H](CO)C(=O)N[C@@H](CC(=O)O)C(=O)N[C@H](C(=O)N[C@@H](Cc1ccc(O)cc1)C(N)=O)[C@@H](C)O)C(C)C)[C@@H](C)O
notes: also called compound 2
B6: N^ε-[(4S)-4-carboxy-4-(19-carboxynonadecanoylamino)butanoyl]Lys[Arg1,Arg17,Pro21,Pro27,His35]-h-amylin (peptide)
peptide: K([γGlu-C20 diacid])RCNTATCATQRLANFLRHSSPNFGAIPSSTNVGSHTY-NH2
modifications: disulfide 3-8; N-terminus assumed
SMILES: CC[C@H](C)[C@H](NC(=O)[C@H](C)NC(=O)CNC(=O)[C@H](Cc1ccccc1)NC(=O)[C@H](CC(N)=O)NC(=O)[C@@H]1CCCN1C(=O)[C@H](CO)NC(=O)[C@H](CO)NC(=O)[C@H](Cc1c[nH]cn1)NC(=O)[C@H](CCCNC(=N)N)NC(=O)[C@H](CC(C)C)NC(=O)[C@H](Cc1ccccc1)NC(=O)[C@H](CC(N)=O)NC(=O)[C@H](C)NC(=O)[C@H](CC(C)C)NC(=O)[C@H](CCCNC(=N)N)NC(=O)[C@H](CCC(N)=O)NC(=O)[C@@H](NC(=O)[C@H](C)NC(=O)[C@@H]1CSSC[C@H](NC(=O)[C@H](CCCNC(=N)N)NC(=O)[C@@H](N)CCCCNC(=O)CC[C@H](NC(=O)CCCCCCCCCCCCCCCCCCC(=O)O)C(=O)O)C(=O)N[C@@H](CC(N)=O)C(=O)N[C@@H]([C@@H](C)O)C(=O)N[C@@H](C)C(=O)N[C@@H]([C@@H](C)O)C(=O)N1)[C@@H](C)O)C(=O)N1CCC[C@H]1C(=O)N[C@@H](CO)C(=O)N[C@@H](CO)C(=O)N[C@H](C(=O)N[C@@H](CC(N)=O)C(=O)N[C@H](C(=O)NCC(=O)N[C@@H](CO)C(=O)N[C@@H](Cc1c[nH]cn1)C(=O)N[C@H](C(=O)N[C@@H](Cc1ccc(O)cc1)C(N)=O)[C@@H](C)O)C(C)C)[C@@H](C)O
notes: 38 residues; also called compound 44

Each binder was assayed against T1, human amylin 3(a) receptor (human …) (assay: cell-based or functional assay).

Row | Ratio hCT/hAmylin funct. (hCTR EC50 over hAmylin-R EC50) | hAmylin-R funct. EC50 (pM) | Binder
1 | 16.7 | 260 | B1
2 | 17.9 | 40 | B2
3 | 64.4 | 298 | B3
4 | 27.8 | 404 | B4
5 | 16.4 | 182 | B5
6 | 24 | 198 | B6
